± gives the standard deviation of the averaged measurements.
Assay: total protein half-life in vivo (active degradation + dilution); higher = more stable protein
[1] = E. coli NCM3722 delta-clpP delta-lon delta-hslV, growth: N-lim chemostat, doubling time 6 h
[2] = E. coli NCM3722 delta-clpP, growth: N-lim chemostat, doubling time 6 h
[3] = E. coli NCM3722 delta-hslV, growth: N-lim chemostat, doubling time 6 h
[4] = E. coli NCM3722 delta-lon, growth: N-lim chemostat, doubling time 6 h
[5] = E. coli NCM3722 delta-smpB, growth: N-lim chemostat, doubling time 6 h
[6] = wild type E. coli NCM3722, growth: C-lim chemostat, doubling time 3 h
[7] = wild type E. coli NCM3722, growth: C-lim chemostat, doubling time 6 h
[8] = wild type E. coli NCM3722, growth: C-lim chemostat, doubling time 12 h
[9] = wild type E. coli NCM3722, growth: N-lim chemostat, doubling time 6 h
[10] = wild type E. coli NCM3722, growth: N-lim chemostat, doubling time 12 h
[11] = wild type E. coli NCM3722, growth: P-lim chemostat, doubling time 6 h
[12] = wild type E. coli NCM3722, growth: P-lim chemostat, doubling time 12 h

Row | Sequence | total protein half-life in vivo [1] | total protein half-life in vivo [2] | total protein half-life in vivo [3] | total protein half-life in vivo [4] | total protein half-life in vivo [5] | total protein half-life in vivo [6] | total protein half-life in vivo [7] | total protein half-life in vivo [8] | total protein half-life in vivo [9] | total protein half-life in vivo [10] | total protein half-life in vivo [11] | total protein half-life in vivo [12]
1 | MLKLTDITWLYHHLPMRFSLTVERGEQVAILGPSGAGKSTLLNLIAGFLTPASGSLTIDGVDHTTMPPSRRPVSMLFQENNLFSHLTVAQNIGLGLNPGLKLNAVQQGKMHAIARQMGIDNLMARLPGELSGGQRQRVALARCLVREQPILLLDEPFSALDPALRQEMLTLVSTSCQQQKMTLLMVSHSVEDAARIATRSVVVADGRIAWQGMTNELLSGKASASALLGITG | 4.96 ± 0.61 h | 5.67 ± 0.82 h | 6.21 ± 1.1 h | 5.79 ± 0.26 h | 5.31 ± 0.54 h | 3.03 ± 0.11 h | 5.94 ± 0.4 h | 10.9 ± 0.42 h | 5.13 ± 0.15 h | 12.6 ± 1.7 h | 5.54 ± 0.3 h | 11.98 ± 0.032 h
2 | MLKRFFITGTDTSVGKTVVSRALLQALASQGKTVAGYKPVAKGSKETPEGLRNKDALVLQSVSTIELPYEAVNPIALSEEESSVAHSCPINYTLISNGLANLTEKVDHVVVEGTGGWRSLMNDLRPLSEWVVQEQLPVLMVVGIQEGCINHALLTAQAIANDGLPLIGWVANRINPGLAHYAEIIDVLGKKLPAPLIGELPYLPRAEQRELGQYIRLAMLRSVLAVDRVTV [P0A6E9] | – | 5.16 ± 1 h | 2 ± 0.11 h | 2.48 h | 2.11 ± 0.046 h | 2.11 ± 0.37 h | – | 4.99 ± 0.23 h | – | 3.5 ± 0.4 h | – | 5.74 ± 0.84 h
3 | MLKRYLVLSVATAAFSLPSLVNAAQQNILSVHILNQQTGKPAADVTVTLEKKADNGWLQLNTAKTDKDGRIKALWPEQTATTGDYRVVFKTGDYFKKQNLESFFPEIPVEFHINKVNEHYHVPLLLSQYGYSTYRGS | 5.28 ± 1.2 h | 5.47 ± 0.54 h | 5.53 h | 5.8 ± 0.16 h | – | > 4 h | – | 7.94 ± 2 h | 5.83 ± 0.21 h | 8.97 ± 0.37 h | 4.42 ± 0.68 h | 8.8 ± 0.6 h
4 | MLKSPLFWKMTSLFGAVLLLLIPIMLIRQVIVERADYRSDVEDAIRQSTSGPQKLVGPLIAIPVTELYTVQEEDKTVERKRSFIHFWLPESLMVDGNQNVEERKIGIYTGQVWHSDLTLKADFDVSRLSELNAPNITLGKPFIVISVGDARGIGVVKAPEVNGTALTIEPGTGLEQGGQGVHIPLPEGDWRKQNLKLNMALNLSGTGDLSVVPGGRNSEMTLTSNWPHPSFLGDFLPAKREVSESGFQAHWQSSWFANNLGERFASGNDTGWENFPAFSVAVTTPADQYQLTDRATKYAILLIALTFMAFFVFETLTAQRLHPMQYLLVGLSLVMFYLLLLALSEHTGFTVAWIIASLIGAIMNGIYLQAVLKGWCNSMLFTLALLLLDGVMWGLLNSADSALLLGTSVLVVALAGMMFVTRNIDWYAFSLPKMKASKEVTTDDELRIWK | – | – | – | – | – | – | – | – | – | 1.65 h | 3.18 ± 0.29 h | 5.81 ± 0.98 h
5 | MLLAGSSLLTLLDDIATLLDDISVMGKLAAKKTAGVLGDDLSLNAQQVSGVRANRELPVVWGVAKGSLINKVILVPLALIISAFIPWAITPLLMIGGAFLCFEGVEKVLHMLEARKHKEDPAQSQQRLEKLAAQDPLKFEKDKIKGAIRTDFILSAEIVAITLGIVAEAPLLNQVLVLSGIALVVTVGVYGLVGVIVKIDDLGYWLAEKSSALMQALGKGLLIIAPWLMKALSIVGTLAMFLVGGGIVVHGIAPLHHAIEHFAGQQSAVVAMILPTVLNLILGFIIGGIVVLGVKAVEKMRGQAH | 5.24 ± 0.46 h | – | 5.53 ± 0.22 h | 5.52 ± 0.47 h | 5.54 ± 0.83 h | 3.16 ± 0.37 h | 5.92 ± 1.3 h | 10.3 ± 1.3 h | 5.79 ± 0.4 h | 12.22 ± 0.064 h | 5.22 ± 0.29 h | 10.4 ± 0.92 h
6 | MLLATALLIVGLLLVVYSADRLVFAASILCRTFGIPPLIIGMTVVSIGTSLPEVIVSLAASLHEQRDLAVGTALGSNIINILLILGLAALVRPFTVHSDVLRRELPLMLLVSVVAGSVLYDGQLSRSDGIFLLFLAVLWLLFIVKLARQAERQGTDSLTREQLAELPRDGGLPVAFLWLGIALIIMPVATRMVVDNATVLANYFAISELTMGLTAIAIGTSLPELATAIAGVRKGENDIAVGNIIGANIFNIVIVLGLPALITPGEIDPLAYSRDYSVMLLVSIIFALLCWRRSPQPGRGVGVLLTGGFIVWLAMLYWLSPILVE | 4.93 h | – | – | – | – | – | – | – | – | – | – | –
7 | MLLNMMCGRQLSAISLCLAVTFAPLFNAQADEPEVIPGDSPVAVSEQGEALPQAQATAIMAGIQPLPEGAAEKARTQIESQLPAGYKPVYLNQLQLLYAARDMQPMWENRDAVKAFQQQLAEVAIAGFQPQFNKWVELLTDPGVNGMARDVVLSDAMMGYLHFIANIPVKGTRWLYSSKPYALATPPLSVINQWQLALDKGQLPTFVAGLAPQHPQYAAMHESLLALLCDTKPWPQLTGKATLRPGQWSNDVPALREILQRTGMLDGGPKITLPGDDTPTDAVVSPSAVTVETAETKPMDKQTTSRSKPAPAVRAAYDNELVEAVKRFQAWQGLGADGAIGPATRDWLNVTPAQRAGVLALNIQRLRLLPTELSTGIMVNIPAYSLVYYQNGNQVLDSRVIVGRPDRKTPMMSSALNNVVVNPPWNVPPTLARKDILPKVRNDPGYLESHGYTVMRGWNSREAIDPWQVDWSTITASNLPFRFQQAPGPRNSLGRYKFNMPSSEAIYLHDTPNHNLFKRDTRALSSGCVRVNKASDLANMLLQDAGWNDKRISDALKQGDTRYVNIRQSIPVNLYYLTAFVGADGRTQYRTDIYNYDLPARSSSQIVSKAEQLIR | 5.42 ± 0.21 h | 5.32 ± 1 h | 5.764 ± 0.032 h | 5.39 ± 0.3 h | 4.989 ± 0.017 h | 3.03 ± 0.053 h | 6.5 ± 0.17 h | 12.2 ± 1.1 h | 5.57 ± 0.65 h | 8.84 ± 0.75 h | 4.75 ± 0.52 h | 9.2 ± 1.2 h
